Experimental data reported in patent publication US20220340666A1 (NEW YORK UNIVERSITY, published 2022).
Numbering of substitutions follows the chain as printed.

B1: G9.1-8m13 Fab (Fab, V domains shown)
VH: EVQLVESGGGLVQPGGSLRLSCAASGFTVSSSSIHWVRQAPGKGLEWVAYIYPYSSSSSYADSVKGRFTISADTSKNTAYLQMNSLRAEDTAVYYCARYSTYSSKWVWGMDYWGQGTLVTVSS
VL: DIQMTQSPSSLSASVGDRVTITCRASQSVSSAVAWYQQKPGKAPKLLIYSASSLYSGVPSRFSGSRSGTDFTLTISSLQPEDFATYYCQQSYYDSNPITFGQGTKVEIKR
notes: Purified Fab; also called G9.1-8mut13
B2: G9.1-8m12 Fab (Fab, V domains shown)
VH: EVQLVESGGGLVQPGGSLRLSCAASGFTVSSSSIHWVRQAPGKGLEWVAYIYPYSSSSSYADSVKGRFTISADTSKNTAYLQMNSLRAEDTAVYYCARYSTYSSSKWVWGMDYWGQGTLVTVSS
VL: B1 VL
notes: Purified Fab; also called G9.1-8mut12
B3: G9.1-8m14 Fab (Fab, V domains shown)
VH: EVQLVESGGGLVQPGGSLRLSCAASGFTVSSSSIHWVRQAPGKGLEWVAYIYPYSSSSSYADSVKGRFTISADTSKNTAYLQMNSLRAEDTAVYYCARYSTYKWVWGMDYWGQGTLVTVSS
VL: B1 VL
notes: Purified Fab; also called G9.1-8mut14
B4: G9.1-8m10 Fab (Fab, V domains shown)
VH: EVQLVESGGGLVQPGGSLRLSCAASGFTVSSSSIHWVRQAPGKGLEWVAYIYPYSGYTSYADSVKGRFTISADTSKNTAYLQMNSLRAEDTAVYYCARYSTYSKWVWGMDYWGQGTLVTVSS
VL: B1 VL
notes: Purified Fab; also called G9.1-8mut10
B5: G9.1-8m6 Fab (Fab, V domains shown)
VH: EVQLVESGGGLVQPGGSLRLSCAASGFTVSSSSIHWVRQAPGKGLEWVAYIYPYSGYTSYADSVKGRFTISADTSKNTAYLQMNSLRAEDTAVYYCARYSTYSSSSSKWVWGMDYWGQGTLVTVSS
VL: B1 VL
notes: Purified Fab; also called G9.1-8mut6
B6: G9.1-8m11 Fab (Fab, V domains shown)
VH: B3 VH with S56G, S57Y, S58T
VL: B1 VL
notes: Purified Fab; also called G9.1-8mut11
B7: G9.1-8m9 Fab (Fab, V domains shown)
VH: B1 VH with S56G, S57Y, S58T
VL: B1 VL
notes: Purified Fab; also called G9.1-8mut9
B8: G9.1-8m8 Fab (Fab, V domains shown)
VH: B2 VH with S56G, S57Y, S58T
VL: B1 VL
notes: Purified Fab; also called G9.1-8mut8
B9: G9.1-8m7 Fab (Fab, V domains shown)
VH: EVQLVESGGGLVQPGGSLRLSCAASGFTVSSSSIHWVRQAPGKGLEWVAYIYPYSGYTSYADSVKGRFTISADTSKNTAYLQMNSLRAEDTAVYYCARYSTYSSSSKWVWGMDYWGQGTLVTVSS
VL: B1 VL
notes: Purified Fab; also called G9.1-8mut7
B10: G9.1-8m11 mIgG2a (antibody, V domains shown)
VH: B3 VH with S56G, S57Y, S58T
VL: B1 VL
notes: also called G9.1-8mut11
B11: G9.1-8m8 mIgG2a (antibody, V domains shown)
VH: B2 VH with S56G, S57Y, S58T
VL: B1 VL
notes: also called G9.1-8mut8
B12: G9.1-8m9 mIgG2a (antibody, V domains shown)
VH: B1 VH with S56G, S57Y, S58T
VL: B1 VL
notes: also called G9.1-8mut9
B13: G9.1-8m3 mIgG1 (antibody, V domains shown)
VH: EVQLVESGGGLVQPGGSLRLSCAASGFTVSSSSIHWVRQAPGKGLEWVAYIYPYSGYTSYADSVKGRFTISADTSKNTAYLQMNSLRAEDTAVYYCARSSSSSWGGIGKWVWGMDYWGQGTLVTVSS
VL: B1 VL
notes: Human/mouse hybrid IgG: CH1 and CL human, Fc mouse IgG1; also called G9.1-8mut3
B14: G9.1-8m5 mIgG1 (antibody, V domains shown)
VH: B13 VH with S99Y, S101T, S102Y, K109S, W110S, V111S, W112S, G113S
VL: B1 VL
notes: Human/mouse hybrid IgG: CH1 and CL human, Fc mouse IgG1; also called G9.1-8mut5
B15: G9.1-8m2 mIgG1 (antibody, V domains shown)
VH: B13 VH with G56S, Y57S, T58S, S99Y, S101T, S102Y
VL: B1 VL
notes: Human/mouse hybrid IgG: CH1 and CL human, Fc mouse IgG1; also called G9.1-8mut2
B16: G9.1-8m4 mIgG1 (antibody, V domains shown)
VH: B13 VH with S99Y, S101T, S102Y, W104S, G105S, G106S, I107S, G108S
VL: B1 VL
notes: Human/mouse hybrid IgG: CH1 and CL human, Fc mouse IgG1; also called G9.1-8mut4
B17: G9.1-8m1 mIgG1 (antibody, V domains shown)
VH: B13 VH with Y50S, I51S, Y52S, P53S, Y54S, S99Y, S101T, S102Y
VL: B1 VL
notes: Human/mouse hybrid IgG: CH1 and CL human, Fc mouse IgG1; also called G9.1-8mut1
B18: G9.1-1 Fab (Fab, V domains shown)
VH: EVQLVESGGGLVQPGGSLRLSCAASGFTFSSSSIHWVRQAPGKGLEWVASIYSSYGYTYYADSVKGRFTISADTSKNTAYLQMNSLRAEDTAVYYCARYYWGWSQNQGFWWYGLDYWGQGTLVTVSS
VL: DIQMTQSPSSLSASVGDRVTITCRASQSVSSAVAWYQQKPGKAPKLLIYSASSLYSGVPSRFSGSRSGTDFTLTISSLQPEDFATYYCQQSWVGSLITFGQGTKVEIKR
B19: G9.1-10 Fab (Fab, V domains shown)
VH: EVQLVESGGGLVQPGGSLRLSCAASGFTVSYSSIHWVRQAPGKGLEWVASIYSYYGSTYYADSVKGRFTISADTSKNTAYLQMNSLRAEDTAVYYCARGHYQEGRKSGFSYWSPALDYWGQGTLVTVSS
VL: B18 VL with S91W, W92Y, V93W, G94Y, S95Y, L96P, I97V
B20: G9.1-2 Fab (Fab, V domains shown)
VH: EVQLVESGGGLVQPGGSLRLSCAASGFTISSSSIHWVRQAPGKGLEWVASISSYYGSTYYADSVKGRFTISADTSKNTAYLQMNSLRAEDTAVYYCARSWSSSFWYNWALDYWGQGTLVTVSS
VL: B1 VL with S91W, Y92Q, Y93W, D94G, S95Y, N96S, P97L, I98V
B21: G9.1-9 Fab (Fab, V domains shown)
VH: EVQLVESGGGLVQPGGSLRLSCAASGFTVSSSSIHWVRQAPGKGLEWVAYIYSSSGYTSYADSVKGRFTISADTSKNTAYLQMNSLRAEDTAVYYCARYSSYHYPYWLFAMDYWGQGTLVTVSS
VL: B1 VL with Y93F, D94H, S95K, N96I
B22: G9.1-5 Fab (Fab, V domains shown)
VH: EVQLVESGGGLVQPGGSLRLSCAASGFTIYYSSIHWVRQAPGKGLEWVASISSSYGSTYYADSVKGRFTISADTSKNTAYLQMNSLRAEDTAVYYCARSVSWYPYYYYYGYGSGLDYWGQGTLVTVSS
VL: B1 VL with S91Y, Y93G, D94W, S95F, N96Y, I98V
notes: Avitag at the C-terminus of the heavy chain, biotinylated when required
B23: G9.1-3 Fab (Fab, V domains shown)
VH: EVQLVESGGGLVQPGGSLRLSCAASGFTIYSSSIHWVRQAPGKGLEWVAYIYSSSGYTSYADSVKGRFTISADTSKNTAYLQMNSLRAEDTAVYYCARYSHSSLYYSWIWALDYWGQGTLVTVSS
VL: B1 VL with Y92W, D94S, S95N, N96K
B24: G9.1-7 Fab (Fab, V domains shown)
VH: EVQLVESGGGLVQPGGSLRLSCAASGFTVSSSSIHWVRQAPGKGLEWVASISSYYGYTYYADSVKGRFTISADTSKNTAYLQMNSLRAEDTAVYYCARSYSYGYDYFVKYYTMDYWGQGTLVTVSS
VL: B1 VL with S91Y, Y92P, Y93G, D94Y, S95R, N96G, P97L
B25: G9.1-11 Fab (Fab, V domains shown)
VH: EVQLVESGGGLVQPGGSLRLSCAASGFTVYSSSIHWVRQAPGKGLEWVASIYSYYGYTSYADSVKGRFTISADTSKNTAYLQMNSLRAEDTAVYYCARSTEGYDRWGYYSSYWSSGLDYWGQGTLVTVSS
VL: DIQMTQSPSSLSASVGDRVTITCRASQSVSSAVAWYQQKPGKAPKLLIYSASSLYSGVPSRFSGSRSGTDFTLTISSLQPEDFATYYCQQTYWGLITFGQGTKVEIKR
notes: as for B22
B26: G9.1-4 Fab (Fab, V domains shown)
VH: EVQLVESGGGLVQPGGSLRLSCAASGFTIYYSSIHWVRQAPGKGLEWVASISSSSGSTSYADSVKGRFTISADTSKNTAYLQMNSLRAEDTAVYYCARSYRPYSSYYWGMDYWGQGTLVTVSS
VL: B25 VL with T91S, Y92S, W93S, G94S

These binders were tested against T1, human Galectin-9 CRD1 (residues 1-148), biotinylated (human, UniProt O00182 1-148, biotinylated in vitro with BirA (Avitag)) (assay: bead-based binding assay, flow cytometry).
T1 construct: Made as GST fusion, GST cleaved off with thrombin, gel filtered, biotinylated; not shown: Avitag upstream of the cloned gene (pGEX vector), left after thrombin cleavage from GST
T1 sequence (O00182 1-148): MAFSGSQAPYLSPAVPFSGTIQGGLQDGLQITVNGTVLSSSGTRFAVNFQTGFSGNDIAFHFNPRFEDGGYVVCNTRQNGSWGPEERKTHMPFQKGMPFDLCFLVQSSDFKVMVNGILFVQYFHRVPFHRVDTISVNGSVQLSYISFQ
Protocol: (§1) The affinities of the antibodies were assessed using a bead-based assay as previously described (Nishikori et al., J Mol Biol, 2012, 424, 391-399) and surface plasmon resonance (SPR). In the bead-based assay, a biotinylated protein (either a Galectin-9 sample or a Fab sample) was immobilized on streptavidin-coated Dynabeads M280 via the biotin-streptavidin interaction. After blocking the excess biotin-binding sites on the beads using unconjugated biotin, binding titration was performed by incubating the second component (i.e., Fab for immobilized Galectin-9 or vice versa), followed by quantification using a dye-labeled neutravidin (ThermoFisher) and flow cytometry analysis. In experiments where the second component is an IgG, a dye-labeled anti-human IgG or anti-mouse IgG antibody was used for detection.

Q: How did the Kd turn out when B1 was run?
A: 20.7 nM

Q: B2 was tested. Which Kd did it give?
A: 2.48 nM

Q: With B3 as the binder, how does the Kd read?
A: 58.5 nM

Target: T1, human Galectin-9 CRD1 (residues 1-148), …
Assay: bead-based binding assay, flow cytometry
Remark: another data set of the same source
Protocol: as §1

Q: With B4 as the binder, how does the Kd read?
A: 58.4 nM

Q: With B5 as the binder, how does the Kd read?
A: 0.52 nM

Q: How did the Kd turn out when B6 was run?
A: 52.7 nM

Q: How did the Kd turn out when B7 was run?
A: 1.57 nM

Q: For B8, which Kd is on record?
A: 0.56 nM

Q: With B9 as the binder, how does the Kd read?
A: 0.93 nM

Q: Which Kd does the source give for B10 here?
A: 1.46 nM

Q: With B11 as the binder, how does the Kd read?
A: 0.51 nM

Q: How did the Kd turn out when B12 was run?
A: 0.71 nM

Q: Does B13 bind?
A: no binding

Q: Does B14 bind?
A: no binding

Q: For B15, which Kd is on record?
A: 6.51 nM

Q: B16 was tested. Which Kd did it give?
A: 12 nM

Q: Does B17 bind?
A: no binding

Each binder was assayed against T1, human Galectin-9 CRD1 (residues 1-148), … (assay: phage ELISA, phage-displayed Fab on biotinylated CRD).

Q: Does B18 bind?
A: binds

Q: Does B19 bind?
A: binds

Q: Does B20 bind?
A: binds

Q: Does B21 bind?
A: binds

Q: Does B22 bind?
A: binds

Q: Does B23 bind?
A: binds

Q: Does B24 bind?
A: binds

Q: Does B25 bind?
A: binds

Q: Does B26 bind?
A: binds
